According to paper PMC6662822, “Rational drug-design approach supported with thermodynamic studies — a peptide leader for the efficient bi-substrate inhibitor of protein kinase CK2” (Scientific Reports, 2019):
Where no end group is shown, it is not given here.

B1: EETEEE-NH2 (peptide)
peptide: EETEEE-NH2
notes: source: synthetic peptide (solid-phase synthesis, purified by HPLC); in the pull-down as a member of the synthetic library
B2: EESEEE-NH2 (peptide)
peptide: EESEEE-NH2
notes: as for B1
B3: KESEEE-NH2 (peptide)
peptide: KESEEE-NH2
notes: source: synthetic peptide (solid-phase synthesis, purified by HPLC)
B4: KETEEE-NH2 (peptide)
peptide: KETEEE-NH2
notes: as for B1
B5: RRRDDDSDDD (peptide)
peptide: RRRDDDSDDD
notes: The supplier is named in the methods of the kinase assay; also called CK2 substrate peptide; source: bought: Biaffin GmbH & Co KG

Key:
Settings in all cases: both partners purified
[1] = biological target: T1, catalytic subunit of human protein kinase CK2 (human, UniProt P68400 1-391, NT-647 dye (NanoTemper Protein Labeling Kit RED), in the MST experiments only); experiment: other fluorescence titration; nanoDSF (Prometheus NT.48): 350 nm/330 nm fluorescence ratio at 25 °C (native protein) against peptide concentration; 2.5 μM hCK2α, peptide 300 nM-10 mM, 25 mM Tris-HCl pH 7, 0.5 M NaCl; single binding site model
T1 construct: catalytic subunit (alpha) of human protein kinase CK2; The His tag is named only for the pull-down (immobilised on cobalt resin); also called hCK2α; CK2α

[2] = biological target: T1, catalytic subunit of human protein …; experiment: other fluorescence titration; nanoDSF as a3, but data at 75 °C: unfolded form of hCK2α
[3] = biological target: T1, catalytic subunit of human protein …; experiment: MST; as a6, labelled hCK2α in the presence of TBBt (hCK2α/TBBt complex)
[4] = biological target: T1, catalytic subunit of human protein …; experiment: other fluorescence titration; nanoDSF as a3 (25 °C), hCK2α in the presence of TBBt (hCK2α/TBBt complex)
[5] = biological target: T1, catalytic subunit of human protein …; experiment: MST; hCK2α labelled with NT-647 dye, 50 nM; ligand 100 nM-10 mM; thermophoresis with temperature jump; global fit of three independent pseudo-titrations

T1 sequence (P68400 whole entry): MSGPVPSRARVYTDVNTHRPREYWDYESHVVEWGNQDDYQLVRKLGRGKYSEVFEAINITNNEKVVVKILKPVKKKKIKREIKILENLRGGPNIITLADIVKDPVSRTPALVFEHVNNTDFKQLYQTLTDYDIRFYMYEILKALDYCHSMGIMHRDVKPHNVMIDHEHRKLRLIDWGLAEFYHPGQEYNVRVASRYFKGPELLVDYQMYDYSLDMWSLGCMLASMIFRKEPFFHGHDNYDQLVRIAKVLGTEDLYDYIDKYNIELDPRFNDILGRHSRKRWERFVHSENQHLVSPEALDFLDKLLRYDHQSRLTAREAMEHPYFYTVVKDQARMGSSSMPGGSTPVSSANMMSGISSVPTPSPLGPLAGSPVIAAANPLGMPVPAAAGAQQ

| Binder | Kd [1] [µM] | Kd [2] [µM] | Kd [3] [µM] | Kd [4] [µM] | Kd [5] [µM] |
| --- | --- | --- | --- | --- | --- |
| B1 | 960 ± 30 | – | – | – | – |
| B2 | 1580 ± 60 | – | – | – | – |
| B3 | 350 ± 20 | ~1000 | 360 ± 230 | 450 ± 20 | 390 ± 210 |
| B4 | 950 ± 50 | – | – | – | – |
| B5 | – | – | – | – | 2100 ± 700 |
